T1: mouse PD1 (mouse, UniProt Q02242 25-288)
T1 sequence (looked up): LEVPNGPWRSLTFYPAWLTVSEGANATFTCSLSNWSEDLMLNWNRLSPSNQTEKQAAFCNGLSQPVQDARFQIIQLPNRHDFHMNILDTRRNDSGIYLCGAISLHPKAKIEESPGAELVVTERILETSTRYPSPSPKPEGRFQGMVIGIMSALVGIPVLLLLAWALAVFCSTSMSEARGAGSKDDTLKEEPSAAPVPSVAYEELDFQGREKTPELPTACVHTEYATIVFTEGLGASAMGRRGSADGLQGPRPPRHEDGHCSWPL

T2: mouse CD20 (mouse, UniProt P19437 1-291)
T2 construct: whole, on cells; also called mCD20; murine CD20
T2 sequence (looked up): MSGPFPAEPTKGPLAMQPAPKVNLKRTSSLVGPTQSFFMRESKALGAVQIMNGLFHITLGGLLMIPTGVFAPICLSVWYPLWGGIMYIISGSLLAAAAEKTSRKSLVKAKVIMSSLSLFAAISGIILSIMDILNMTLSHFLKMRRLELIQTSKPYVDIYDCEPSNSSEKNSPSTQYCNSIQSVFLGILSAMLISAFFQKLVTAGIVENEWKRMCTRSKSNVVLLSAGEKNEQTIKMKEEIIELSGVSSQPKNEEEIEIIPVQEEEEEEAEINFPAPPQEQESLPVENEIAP

B1: 1 + 2 m20_mPL_1 (bispecific antibody, human IgG1, kappa)
heavy: QVQLQQPGAELVRPGTSVKLSCKASGYTFTSYWMHWIKQRPGQGLEWIGVIDPSDNYTKYNQKFKGKATLTVDTSSSTAYMQLSSLTSEDSAVYFCAREGYYGSSPWFAYWGQGTLVTVSSASTKGPSVFPLAPSSKSTSGGTAALGCLVKDYFPEPVTVSWNSGALTSGVHTFPAVLQSSGLYSLSSVVTVPSSSLGTQTYICNVNHKPSNTKVDKKVEPKSCDKTHTCPPCPAPEAEGAPSVFLFPPKPKDTLMISRTPEVTCVVVDVSHEDPEVKFNWYVDGVEVHNAKTKPREEQYNSTYRVVSVLTVLHQDWLNGKEYKCKVSNKALPSSIEKTISKAKGQPREPQVCTLPPSRDELTKNQVSLSCAVKGFYPSDIAVEWESNGQPENNYKTTPPVLDSDGSFFLVSKLTVDKSRWQQGNVFSCSVMHEALHNRFTQKSLSLSPGK
light: QIVMSQSPAILSASPGEKVTMTCRARSSVSYIHWYQQKPGSSPKPWIYATSNLASGVPGRFSGSGSGTSYSLTITRVEAEDAATYYCQQWSSKPPTFGGGTKLEIKRTVAAPSVFIFPPSDEQLKSGTASVVCLLNNFYPREAKVQWKVDNALQSGNSQESVTEQDSKDSTYSLSSTLTLSKADYEKHKVYACEVTHQGLSSPVTKSFNRGEC
chain: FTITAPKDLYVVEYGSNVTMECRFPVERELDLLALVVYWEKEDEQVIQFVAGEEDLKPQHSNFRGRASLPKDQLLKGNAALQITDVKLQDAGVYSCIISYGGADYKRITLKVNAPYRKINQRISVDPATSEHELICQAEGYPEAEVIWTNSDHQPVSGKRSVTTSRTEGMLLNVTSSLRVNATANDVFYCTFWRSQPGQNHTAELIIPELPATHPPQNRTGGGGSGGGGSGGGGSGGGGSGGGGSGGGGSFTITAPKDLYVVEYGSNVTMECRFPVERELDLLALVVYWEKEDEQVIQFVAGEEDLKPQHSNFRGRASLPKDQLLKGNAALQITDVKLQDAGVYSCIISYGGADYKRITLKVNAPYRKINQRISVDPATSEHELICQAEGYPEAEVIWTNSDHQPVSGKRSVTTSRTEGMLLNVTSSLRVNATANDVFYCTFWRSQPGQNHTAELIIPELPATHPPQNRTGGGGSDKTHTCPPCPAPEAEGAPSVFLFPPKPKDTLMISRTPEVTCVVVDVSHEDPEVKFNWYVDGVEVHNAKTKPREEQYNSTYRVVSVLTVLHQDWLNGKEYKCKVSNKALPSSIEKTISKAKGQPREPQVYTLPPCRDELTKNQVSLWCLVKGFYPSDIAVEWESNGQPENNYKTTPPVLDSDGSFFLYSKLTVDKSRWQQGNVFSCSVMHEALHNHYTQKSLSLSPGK
B2: 2 + 2 m20_mPL_3 (bispecific antibody, human IgG1, kappa)
heavy: QVQLQQPGAELVRPGTSVKLSCKASGYTFTSYWMHWIKQRPGQGLEWIGVIDPSDNYTKYNQKFKGKATLTVDTSSSTAYMQLSSLTSEDSAVYFCAREGYYGSSPWFAYWGQGTLVTVSSASTKGPSVFPLAPSSKSTSGGTAALGCLVKDYFPEPVTVSWNSGALTSGVHTFPAVLQSSGLYSLSSVVTVPSSSLGTQTYICNVNHKPSNTKVDKKVEPKSCDKTHTCPPCPAPEAEGAPSVFLFPPKPKDTLMISRTPEVTCVVVDVSHEDPEVKFNWYVDGVEVHNAKTKPREEQYNSTYRVVSVLTVLHQDWLNGKEYKCKVSNKALPSSIEKTISKAKGQPREPQVCTLPPSRDELTKNQVSLSCAVKGFYPSDIAVEWESNGQPENNYKTTPPVLDSDGSFFLVSKLTVDKSRWQQGNVFSCSVMHEALHNRFTQKSLSLSPGKGGGGSGGGGSGGGGSQVQLQQPGAELVRPGTSVKLSCKASGYTFTSYWMHWIKQRPGQGLEWIGVIDPSDNYTKYNQKFKGKATLTVDTSSSTAYMQLSSLTSEDSAVYFCAREGYYGSSPWFAYWGQGTLVTVSSASTKGPSVFPLAPSSKSTSGGTAALGCLVKDYFPEPVTVSWNSGALTSGVHTFPAVLQSSGLYSLSSVVTVPSSSLGTQTYICNVNHKPSNTKVDKKVEPKSCD
chain: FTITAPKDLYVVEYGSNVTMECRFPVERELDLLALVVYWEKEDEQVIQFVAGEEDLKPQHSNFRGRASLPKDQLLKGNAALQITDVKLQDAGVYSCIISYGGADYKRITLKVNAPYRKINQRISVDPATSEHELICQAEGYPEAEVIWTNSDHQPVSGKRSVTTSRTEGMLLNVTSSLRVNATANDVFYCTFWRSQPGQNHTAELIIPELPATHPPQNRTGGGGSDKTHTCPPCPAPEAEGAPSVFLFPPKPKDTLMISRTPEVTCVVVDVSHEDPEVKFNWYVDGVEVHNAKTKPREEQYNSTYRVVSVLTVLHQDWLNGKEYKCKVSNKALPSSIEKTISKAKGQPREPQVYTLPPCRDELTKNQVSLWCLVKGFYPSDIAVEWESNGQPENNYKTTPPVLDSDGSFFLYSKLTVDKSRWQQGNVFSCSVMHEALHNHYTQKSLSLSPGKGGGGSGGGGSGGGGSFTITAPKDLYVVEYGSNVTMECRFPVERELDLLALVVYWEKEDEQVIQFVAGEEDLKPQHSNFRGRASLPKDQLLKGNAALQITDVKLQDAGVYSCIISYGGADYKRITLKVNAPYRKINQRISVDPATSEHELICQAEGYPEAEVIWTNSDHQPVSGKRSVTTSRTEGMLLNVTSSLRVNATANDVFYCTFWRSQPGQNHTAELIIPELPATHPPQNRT
light: B1 light

What was measured:
mouse PD1 [1] = target: T1, mouse PD1; assay: cell-based or functional assay
mouse CD20 = target: T2, mouse CD20; assay: flow cytometry on MC38/mCD20 cells
Method: (§1) Cells (HEK 293, MC38 over-expressing mCD20 or Jurkat over-expressing mPD1) were resuspended in FACS wash (PBS with 1% FBS) at 1×10⁸ cells/mL. The staining was performed in 1×10⁵ cells per well. The antibodies were diluted with a ratio of 1:5 from a starting concentration of 1.3×10⁻⁷ M. The diluted antibodies were then added into the wells containing cells. Cells were stained for 30 min at 2-8° C. and washed twice with FACS wash buffer. APC-conjugated goat anti-human IgG (Jackson Immuno Research, 109-607-003, 1:400) was added to stain the cells for 30 min at 2-8° C. Following washing, cells were fixed in 2% paraformaldehyde for 30 min at 2-8° C. After two washes, stained cells were analyzed using BD LSRFortessa™ FACS instrument. The results were analyzed by FlowJo. FSC/SSC gates were used to select mononuclear cells.

mouse PD1 [2] = target: T1, mouse PD1; assay: flow cytometry on Jurkat/mPD1 cells
Method: as §1

Binder	Max % inhibition, AP1-luciferase bioassay, 2.5 nM CD3 bsAb (mouse PD1 [1])	Max MFI (mouse CD20)	EC50 (mouse PD1 [2])	Max MFI (mouse PD1 [2])	IC50 (M), AP1-luciferase bioassay, 2.5 nM CD3 bsAb (mouse PD1 [1])	EC50 (mouse CD20)
B1	11%	20300 MFI	22.4 nM	16700 MFI	–	–
B2	33%	35300 MFI	6.31 nM	6980 MFI	6.5e-11 M	8.42 nM
